Consider 167 variants from the RNAGym collection of RNA variant scans (doi:10.7554/elife.90254).

To fix the notation:
B1: LINE1-full (parent)
chain: UACGUAGGUGGUUUUCCCCUGAUAGUGCUAAGGGGGCCUGGAAGUUUGGACUGGGCAGAGCUCAACACAGCGUGGCAAAGUGGCUGUGGCUAGACUGCCUCUCUGGAUUCCUCGUCACUCAGCAGGGCAUCUCUGAGAGAAAUGCC

The variants in the data set derive from B1. Kind of data set: self-cleavage, relative activity (ratio to wild type); higher = more cleavage; in vitro, sequencing; the parent is a self-cleaving ribozyme.
With U9G U115C, the self-cleavage was found to be 0.29. As for U12A U91C, the figure is 0.54.

Take U12A U91A: the self-cleavage was determined as 0.82. Then U12G A121C, with 1.29; and U12G A121G, with 1.4. Then G11U C118U, with 0.91; and G10A A64G, with 0.22; and G10A U134C, with 1.5. As for U12C G106A, the figure is 1.68.

Consider U12A A30U, for which the self-cleavage turned out to be 1.63. For U9G U100C, the self-cleavage is 1.61.

As for U9G U100A, the self-cleavage worked out at 0.86. As for U12C U46G, the figure is 0.82; as for U12C U46A, 1.24; as for G10U A78G, 1.09. On to U12C A142G, for which the self-cleavage stood at 1.13. Take G11A U29C: the self-cleavage was found to be 1.25.

Regarding G10A U29C, the self-cleavage is 1.12. Then G10A U20C, with 1.6; and G11U A129G, with 0.83. Then U12G A136G, with 1.72.

Take U12A U119C: the self-cleavage was determined as 1.54. As for G10A G36C, the figure is 1.89; as for G10A G48U, 0.89; as for U12C U85A, 0.06.

Take U12C A138U: the self-cleavage came out at 1.21. Then U12C G34C, with 1.34; and U12C A78U, with 1.52; and G10A A78G, with 0.91.

Take G11A C84U: the self-cleavage was found to be 0.15. As for U9C U132C, the figure is 1.47. In the case of G10A A141G, the self-cleavage was found to be 0.94.

Regarding G11A A107G, the self-cleavage is 1.65. As for U12A A43G, the figure is 0.85; as for U12A A64G, 0.27; as for U12A A64U, 0.79.

For the variant U9C U143A, the self-cleavage came to 1.28.

With U12C U15C, the self-cleavage was found to be 1.05.

As for U12C U15A, the self-cleavage worked out at 0.7.

Regarding U12G A57U, the self-cleavage is 0.17. Then U9G U12A, with 0.16; and U12G C103A, with 1.15; and U12G U39A, with 1.05.

Regarding U12A U96C, the self-cleavage was 0.28. As for U12C A129U, the figure is 1.53; as for U12C A129C, 1.99; as for G10A U130C, 2.22. Then U12G A78G, with 0. Then U9G U119C, with 1.32. Turning to U12G U81A, the self-cleavage worked out at 2.33.

As for U12G U81G, the self-cleavage was found to be 0.68. On to U12A U112C, for which the self-cleavage came to 1.3. Then U12C U143A, with 1.25; and G10A U100C, with 0.49; and U12G A141U, with 1.29. Regarding U9C U109C, the self-cleavage was found to be 0.99. For the variant U9G A138U, the self-cleavage was found to be 1.51.

With U12A A59G, the self-cleavage worked out at 0.27. As for U12A A59C, the figure is 0.61. Then U12C U73G, with 1.29; and G10A U119C, with 1. Then G10A U119A, with 0.93. In the case of U12G U47A, the self-cleavage amounted to 0.95. For the variant U9C U130A, the self-cleavage is 1.16. As for U9C U130G, the self-cleavage was 0.74. Then U9C U130C, with 1.3; and G11A A43G, with 1.42. Then G11U A59U, with 1.02. Then U12A U115C, with 1.21; and U12A U115A, with 1.58. On to U12A A136G, for which the self-cleavage was 2.03. As to G11A U119C, the self-cleavage is 0.93. G10A U15C: the self-cleavage turned out to be 1.2. As for U12C A79G, the figure is 1.1; as for U12C G80A, 0.84. For G10A A30G, the self-cleavage was found to be 1.19. As to U12A U14A, the self-cleavage is 0.27. For U9G A142G, the self-cleavage is 0.95. Regarding U9G G93U, the self-cleavage amounted to 0.05. Consider U12C U47C, for which the self-cleavage was 1.42. As for U12G A140C, the figure is 0.48; as for U12G A140G, 0.91; as for U12G U85A, 0.22. U12G U85G: the self-cleavage turned out to be 0.21. As for U12C U91A, the figure is 0.64. As for U9G U85C, the self-cleavage came out at 0.38. With U9G A136G, the self-cleavage is 0.68. As for U12A A141U, the figure is 0.64; as for G11A G139A, 1.91; as for U12G U87C, 0.16. U12G U87A: the self-cleavage turned out to be 0.09. Then G10U A138U, with 1; and U12C A57G, with 1. Then U12G G105U, with 0.67; and G10A A142G, with 1.42; and G10A G97A, with 0.09.

For the variant U12A G21A, the self-cleavage came out at 1.08. Then G10U G97A, with 0.11. Then U12A A138U, with 1.02. For U12G G54A, the self-cleavage is 0.63. With U12G A64U, the self-cleavage came out at 0.83. As for U12A U45G, the figure is 1.33; as for G10U U62C, 0.06. Then U9G A77G, with 1.55. As for U12C U96G, the figure is 0.28; as for U12A, 1.17; as for U12G, 1.13. As for U12C, the self-cleavage came out at 1.29. For G10A U102C, the self-cleavage came out at 1.39. Turning to U12C G35U, the self-cleavage came to 1.53. Then U12C U39G, with 0.84; and G11C A67G, with 0.46. As for G10U A50U, the figure is 1.99; as for G11A A24U, 1.72; as for G10A U12G, 0.83.

As to U12A U100C, the self-cleavage was 1.64. As for U12A A117U, the figure is 1.36.

As to G10C G55A, the self-cleavage is 0.6. Then U12C A22U, with 1.68; and G10A U73A, with 1.55. In the case of G11A U104C, the self-cleavage was 1.59.

As for U9G C146U, the self-cleavage came out at 1.29. Then G11A A138G, with 1.93; and U12C U20A, with 1.23; and U12C U20G, with 0.78. Then U9G A107G, with 1.13; and U9G A107U, with 0.46; and G10A G35A, with 0.92. U12A G53C: the self-cleavage was determined as 1.12. For the variant U12G A67G, the self-cleavage was 0.53. For the variant U12G A67U, the self-cleavage was 0.23.

On to G10A U143C, for which the self-cleavage stood at 1.4. For the variant G10A A129U, the self-cleavage was 0.66.

Turning to U12C A50G, the self-cleavage came out at 1.15. Turning to U12C A50U, the self-cleavage is 1.54. With U12C U119A, the self-cleavage was found to be 1.78. For U12C C99G, the self-cleavage turned out to be 0.63. On to G10U C61U, for which the self-cleavage stood at 0.05. On to U9G U14C, for which the self-cleavage was determined as 0.68.

On to G10A A57U, for which the self-cleavage turned out to be 0.07. Then U12C U14C, with 1.12; and G11A G105A, with 1.27. In the case of U12G A69G, the self-cleavage turned out to be 0.77. U9G U13G: the self-cleavage is 1.31. As to U9G U13C, the self-cleavage came out at 0.65. As for U12A U20C, the self-cleavage was found to be 1.05. Then U12C U104C, with 1.56; and U12C U104A, with 1.3. Take U12C A107G: the self-cleavage was 0.99. G11C A138G: the self-cleavage was 1.22. As for U12C G135U, the figure is 1.57; as for G11A U112C, 1.37; as for G10A A67G, 0.42. For the variant U12G U15C, the self-cleavage is 0.9. Turning to U12G G89A, the self-cleavage came to 0.14.

Turning to U12C U115G, the self-cleavage was determined as 2.63. As for U12C U115A, the figure is 0.87; as for G10A U112C, 1.66. Then U12A C51A, with 1.16; and U12C C120A, with 1.47. On to U12C C120U, for which the self-cleavage stood at 1.43. As for U12G U23C, the figure is 1.32; as for G11A A50C, 1.24; as for U12A U62G, 0.06.

U12A U62A: the self-cleavage is 0.05. Then U12A U62C, with 0.12. For the variant U12A A94U, the self-cleavage is 0.51.
